{
  "source": "patent US20110257086A1",
  "about": "(Johns Hopkins, published 2011)",
  "binders": {"B1": {"name": "GO-CoA-Tat (Compound 1 of FIG. 1C), bisubstrate analog inhibitor of ghrelin O-acyltransferase (peptide)", "peptide": "GSSFLSPEHQYGRKKRRQRRR", "modifications": "Ser3 of ghrelin replaced with 1,2-diaminopropionic acid (Dap), whose side-chain amine carries an octanoyl group conjugated at its alpha carbon to coenzyme A; amino-hexanoyl (Ahx) linker between ghrelin residue 10 and the Tat peptide"}},
  "assay_in_all_cases": "cell-based or functional assay",
  "key": {"[1]": {"biological_target": "T1, ghrelin O-acyltransferase (GOAT) endogenous in human cell lines (HEL, Kato III, AGS) (human, UniProt Q96T53 1-435)", "T1 sequence": "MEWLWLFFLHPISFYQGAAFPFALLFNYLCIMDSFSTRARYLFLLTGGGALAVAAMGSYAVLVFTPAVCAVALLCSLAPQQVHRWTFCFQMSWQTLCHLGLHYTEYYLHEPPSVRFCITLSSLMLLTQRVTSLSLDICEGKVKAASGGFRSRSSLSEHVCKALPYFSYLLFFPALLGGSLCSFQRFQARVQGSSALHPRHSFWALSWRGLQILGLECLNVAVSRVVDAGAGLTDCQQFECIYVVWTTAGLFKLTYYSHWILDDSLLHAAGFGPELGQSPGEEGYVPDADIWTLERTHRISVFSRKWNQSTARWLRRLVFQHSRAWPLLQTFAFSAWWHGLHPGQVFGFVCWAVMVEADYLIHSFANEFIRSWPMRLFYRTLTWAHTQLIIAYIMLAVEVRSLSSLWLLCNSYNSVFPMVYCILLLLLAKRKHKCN"}, "p300 HAT": {"biological_target": "p300 HAT"}, "PCAF HAT": {"biological_target": "PCAF HAT"}, "[2]": {"biological_target": "serotonin N-acetyltransferase"}},
  "data": [
    {"binder": "B1", "values": [
      {"measurement": "IC50 of reduction of acyl-ghrelin levels in cell lysates (HEL, Kato III, AGS cells)", "setting": "[1]", "value": "1000 to 2000", "unit": "nM"},
      {"measurement": "inhibition of acetyltransferase activity at 10 µM GO-CoA-Tat (alpha-KGDH coupled spectrophotometric assay)", "setting": "p300 HAT", "value": "< 15", "unit": "% inhibition"},
      {"measurement": "inhibition of acetyltransferase activity at 10 µM GO-CoA-Tat (alpha-KGDH coupled spectrophotometric assay)", "setting": "PCAF HAT", "value": "< 15", "unit": "% inhibition"},
      {"measurement": "inhibition of acetyltransferase activity at 10 µM GO-CoA-Tat (alpha-KGDH coupled spectrophotometric assay)", "setting": "[2]", "value": "< 15", "unit": "% inhibition"}
    ]}
  ]
}
